In patent publication CN106117358A (UNIV SUN YAT SEN, dated 2016):

Legend:
CD3 on Jurkat cells [1] = biological target: CD3 on Jurkat cells (UniProt P07766); assay: flow cytometry, culture supernatant on Jurkat cells (negative control)
CD3-His蛋白(MP-5) = biological target: T1, CD3-His蛋白(MP-5) (UniProt P07766 23-126); assay: BLI (Octet RED96), off-rate screening; sdAb-SASA from expression medium captured on BSA-coated biosensor, 100 nM CD3 in solution, 1:1 Langmuir fit, 30°C
T1 construct: Immunogen and panning antigen; the construct is not defined; also called CD3蛋白; not shown: His tag

CD3 on Jurkat cells [2] = biological target: CD3 on Jurkat cells (UniProt P07766); assay: flow cytometry, culture supernatant on Jurkat cells

T1 sequence (P07766 23-126): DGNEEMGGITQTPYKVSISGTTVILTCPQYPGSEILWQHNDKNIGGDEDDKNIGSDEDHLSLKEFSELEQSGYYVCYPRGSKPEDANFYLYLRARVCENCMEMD

NC-sdAb (VHH)
MFI (CD3 on Jurkat cells [1]): 115

B1: A30228 (VHH)
VHH: QVKLEESGGGLVQAGDSLTLSCAASGRTFDTMGWFRQAPGKEREFVAAVRWSSGNTYYGNTVKGRFTISRDTATNTVYLEMNSLKHEDTAVYYCAARLAGRGAADHWGQGTQVTVSS
notes: Llama sdAb from a phage display library; Tested as sdAb-SASA protein in E. coli expression medium / culture supernatant (FASEBA format), not purified; 1; also called 抗CD3单域抗体; sdAb; not shown: SASA fusion partner of the pFASEBA vector (sdAb-SASA protein)
koff (CD3-His蛋白(MP-5)): 7.61e-05 s⁻¹ | MFI (CD3 on Jurkat cells [2]): 240

B2: A30311 (VHH)
VHH: QVKLEESGGGLVQAGGSLRLSCAASGRTFDTMGWFRQAPGKEREFVAAVRWSSGNTYYGNTVKGRFTISRDTATNTVYLQMNSLKHEDTAVYYCAARLGGRGAADHWGQGTQVTVSS
notes: Llama sdAb from a phage display library; Tested as sdAb-SASA protein in E. coli expression medium / culture supernatant (FASEBA format), not purified; 3; also called 抗CD3单域抗体; sdAb; not shown: SASA fusion partner of the pFASEBA vector (sdAb-SASA protein)
koff (CD3-His蛋白(MP-5)): 0.000153 s⁻¹ | MFI (CD3 on Jurkat cells [2]): 299
